In the supplement of paper PMC10567573 one finds protein stability index data, which are given here for 53 sequences.

± gives the standard deviation.

This data set in a line: protein stability index of a GFP-peptide fusion (GPS, HEK-293T) (PSI 1-6); higher = more stable.
Where [1] appears, read: treatment: DMSO, c terminus: a fixed tail appended.
Setting [2] is: treatment: MLN4924 1 uM, 8 h, c terminus: a fixed tail appended.
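Note: 24-mer peptide tiles fused after GFP, lentivirally expressed, FACS-sorted into six equal bins by GFP/DsRed ratio, decoded by Illumina sequencing, PSI is the read-weighted mean bin number.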

In the case of EFDLSPLNLDIGQVYKETRLFLDG [AASDHPPT], the protein stability index turned out to be 2.89 ± 0.28 under setting [1] and 2.96 ± 0.27 under setting [2].

VERILARGENLEHLRNKTEDLEAT [VAMP8]: the protein stability index runs as follows: under setting [1], 5.33 ± 0.2; under setting [2], 5.37 ± 0.14.

Sequence YLTVKVWDLNMENRPIETYQVHDY [PPP2R2B] registered a protein stability index under setting [1] of 2.25 ± 0.032 and a protein stability index under setting [2] of 2.31 ± 0.2.

Regarding KPKPPPNSEGEQGPNGSQNSSYSQ [CCNC], the protein stability index by setting is: under setting [1], 5.43 ± 0.14; under setting [2], 5.55 ± 0.18.

For the sequence RQLLRDFQSRLPYQYLHYALFKAN [P3H4], the protein stability index by setting is: under setting [1], 2.49 ± 0.29; under setting [2], 2.16 ± 0.43.

Take RDYVRLFGIKCAKCQVGFSSSDLV [ISL2]: the protein stability index reads like this: under setting [1], 2.51 ± 0.52; under setting [2], 2.25 ± 0.23.

As for VRENVPRVLNSAKEKSSTVPIPTV [SOAT1], the protein stability index came to 4.161 ± 0.036 under setting [1] and 4.16 ± 0.14 under setting [2].

In the case of LRVMETKPDKAVSIIECDMNVDFD [UFD1], the protein stability index under setting [1] was found to be 3.57 ± 0.43 and the protein stability index under setting [2] amounted to 3.53 ± 0.28.

In the case of GLGCKDLDLIFHVALPTEAEFQLV [TENT5C], the protein stability index under setting [1] came out at 2.26 ± 0.21 and the protein stability index under setting [2] was determined as 2.28 ± 0.45.

For TQSDEENGRACEMNGEECAEDLRM [IKZF1], the protein stability index under setting [1] came out at 5.66 ± 0.28 and the protein stability index under setting [2] amounted to 5.66 ± 0.19.

On to LPDSPLRFDGLPAVLGFPGFSSGR [TRIM15], for which the protein stability index reads like this: under setting [1], 2.87 ± 0.39; under setting [2], 3.18 ± 0.41.

Regarding SMLPPVNFSIVPYEKKFDTFIPLE [SPATS1], the protein stability index turned out to be 2.6 ± 0.26 under setting [1] and 2.49 ± 0.1 under setting [2].

In the case of LFAELGYFTDTDELQLEAANETYE [ATF6], the protein stability index stood at 4.04 ± 0.1 under setting [1] and 4.15 ± 0.24 under setting [2].

Sequence LFVGLYYNVIIGWSIFYFFKSFQY [SLC6A17] had a protein stability index under setting [2] of 3.17 ± 1.5.

Take RDHVETELLKEAELIRNIQELLKR [TEKT4]: the protein stability index came out at 2.74 ± 0.16 under setting [1] and 3.01 ± 0.36 under setting [2].

LSRLQRVKFCLLGALLAPIRVLLA [LPCAT4] returned a protein stability index under setting [1] of 3.67 ± 0.42 and a protein stability index under setting [2] of 3.58 ± 0.14.

As for METNGSTEGSRSRSRSLDIQPSSE [SPAG8], the protein stability index by setting is: under setting [1], 5.54 ± 0.33; under setting [2], 5.35 ± 0.064.

For RFLVGMMNGGMSLVAFVLLNECVG [SLC22A15], the protein stability index reads like this: under setting [1], 3.25 ± 0.35; under setting [2], 2.9 ± 0.38.

As to ADRLVRVHGDPAVWWVSQFVKYLI [FUT8], the protein stability index is 2.25 ± 0.35 under setting [1] and 2.11 ± 0.26 under setting [2].

As for CSRQFPEFQERARKRIRTYLKSCR [NOL4L], the protein stability index under setting [1] is 3.25 ± 0.15 and the protein stability index under setting [2] is 3.36 ± 0.2.

NRILAERIAKEIQVIPLQRDDED [IMPA1] returned a protein stability index (treatment: DMSO, c terminus: native) of 3.47 ± 0.1 and a protein stability index (treatment: MLN4924 1 uM, 8 h, c terminus: native) of 3.65 ± 0.12.

Consider KTPYDTSRRQEKSAGDADPENGEI [ELOA2], for which the protein stability index is, setting by setting: under setting [1], 5.3 ± 0.22; under setting [2], 5.51 ± 0.17.

In turn, NASTLRTINIKCHVHDPHGQVIWG [FBXO39] registered a protein stability index under setting [1] of 2.17 ± 0.18 and a protein stability index under setting [2] of 2.21 ± 0.21.

For RLVNEYVELVNAACNFEPHESFFS [ZER1], the protein stability index was 2.34 ± 0.4 under setting [1] and 2.1 ± 0.48 under setting [2].

Turning to MLLRKFAESKGTGREKPGPLDFEA [FCHO1], the protein stability index by setting is: under setting [1], 2.84 ± 0.034; under setting [2], 2.86 ± 0.5.

Consider SQFKILVSLLENNIYVHDLLTFQQ [VPS39], for which the protein stability index is, setting by setting: under setting [1], 3.02 ± 0.29; under setting [2], 3.21 ± 0.6.

In the case of RTYFHEFGHVMHQICAQVSFFFPP [NLN], the protein stability index reads like this: under setting [1], 2.43 ± 0.43; under setting [2], 3.41 ± 0.054.

For PCGPNMSEVSCKKRDDYLEWPEYF [DCTD], the protein stability index is 3.56 ± 0.23 under setting [1] and 3.6 ± 0.26 under setting [2].

Turning to VLFLDHVMYTIHMGCHGFRDPFEC [IKZF1], the protein stability index is, setting by setting: under setting [1], 3 ± 0.26; under setting [2], 2.96 ± 0.49.

For IAAATSVLKTRFSYAFPKEFPYRM [CCNC], the protein stability index is, setting by setting: under setting [1], 2.08 ± 0.12; under setting [2], 2.58 ± 0.51.

YRALLSGSNPPYLPFRDASFGNCT [CDC14A]: the protein stability index reads like this: under setting [1], 2.44 ± 0.091; under setting [2], 2.49 ± 0.17.

Take EAVRQEMRRQEPLPPPPPPSRGGN [WAS]: the protein stability index reads like this: under setting [1], 5.18 ± 0.21; under setting [2], 5.19 ± 0.11.

With FQHHAKPNCFRKDPDINMHPFFFA [FADS1], the protein stability index was determined as 2.2 ± 0.43 under setting [1] and 2.29 ± 0.19 under setting [2].

On to PYARIQQSRRQCHAEEDQSQVPEA [SMIM2], for which the protein stability index reads like this: under setting [1], 5.3 ± 0.19; under setting [2], 5.19 ± 0.14.

In turn, LLLGSPHPAATALHAELCQAGSSQ [LPCAT4] showed a protein stability index under setting [1] of 3.01 ± 0.42 and a protein stability index under setting [2] of 3.18 ± 0.21.

For the sequence GNTESELKKLAEENPDLQEAYIAK [GDAP1], the protein stability index under setting [1] stood at 5.51 ± 0.26 and the protein stability index under setting [2] came out at 5.5 ± 0.26.

LRKKILKIRHGWEDVTKINKTEIC [STEAP1]: the protein stability index was determined as 2.29 ± 0.47 under setting [1] and 2.56 ± 0.48 under setting [2].

The sequence LDDEDDDEEDCPNPEEYNLDEPNA [SRPK2] returned a protein stability index under setting [1] of 5.57 ± 0.22 and a protein stability index under setting [2] of 5.58 ± 0.24.

FGKDFRKGLLKKGACYGDDACFVA [PPTC7] displayed a protein stability index under setting [1] of 2.24 ± 0.31 and a protein stability index under setting [2] of 2.53 ± 0.35.

As for YSYLVLLFPVFLATDYLRYKPVVL [SLC19A2], the protein stability index reads like this: under setting [1], 3.56 ± 0.34; under setting [2], 3.01 ± 0.51.

MVWNQNGKSPSITFEYTLLQPPHE [ADAMTSL2] showed a protein stability index under setting [1] of 2.23 ± 0.27 and a protein stability index under setting [2] of 2.64 ± 0.37.

For the sequence LWFANAHLLSWFSPTIIFDNWIPL [DHCR7], the protein stability index was found to be 2.92 ± 0.33 under setting [1] and 2.93 ± 0.16 under setting [2].

Turning to VQSLQLSPRTRGSWSQPQPLKAPC [RASAL3], the protein stability index was determined as 3.54 ± 0.41 under setting [1] and 3.68 ± 0.098 under setting [2].

ESKEPIEEEPTGAGLNKDKETEER [SDE2] showed a protein stability index under setting [1] of 5.57 ± 0.34 and a protein stability index under setting [2] of 5.7 ± 0.13.

Take PTSPVQGTTPQISPSTLIGSLRTL [HDAC6]: the protein stability index by setting is: under setting [1], 3.77 ± 0.22; under setting [2], 3.79 ± 0.26.

As for GRRGWKKFYAVLKGTILYLQKDEY [PSD2], the protein stability index amounted to 3 ± 0.4 under setting [1] and 3.32 ± 0.37 under setting [2].

Take HFHPTVIGESMYGDFEEAFDHLQN [TENT5C]: the protein stability index was 3.82 ± 0.064 under setting [1] and 3.9 ± 0.37 under setting [2].

DINSVRYYPSGDAFASGSDDATCR [GNB5] registered a protein stability index under setting [1] of 4.03 ± 0.047 and a protein stability index under setting [2] of 4.22 ± 0.16.

With NWLGRPSKVLSLQDLCCRTIVSCT [RAB40A], the protein stability index under setting [1] is 2.74 ± 0.08 and the protein stability index under setting [2] turned out to be 2.88 ± 0.44.

In the case of EYLIRLFQEWEAHRNLSQLPNFAF [TCF25], the protein stability index under setting [1] was determined as 2.32 ± 0.7 and the protein stability index under setting [2] worked out at 2.39 ± 0.24.

Consider LWCANILGYAVSTFAMVKGYFFPT [DHCR7], for which the protein stability index reads like this: under setting [1], 4.05 ± 0.23; under setting [2], 3.83 ± 0.12.

As for GCSQFRLAVLDWNQRAMDLYKALG [SAT2], the protein stability index came to 2.2 ± 0.39 under setting [1] and 2.02 ± 0.18 under setting [2].

With RDRFKSFQRRNMIEPRERAKFKRK [NOP53], the protein stability index by setting is: under setting [1], 4.11 ± 0.47; under setting [2], 4.54 ± 0.35.
